± gives the standard deviation of the averaged measurements.
System: ATP
Assay: switch fluorescence ratio, 500 uM ATP over buffer (Cy3 cluster intensity, sum of 5 cycles each) (fold (ratio)); higher = stronger signal-on switching upon ATP binding; sequences stand for … in TCGTCGGCAGCGTCAGATGTGTATAAGAGACAGTTTTTTTTTTTTTTTTTTTTTTTTT…TC
Conditions: aptamer strand: ATP DNA aptamer (quencher-CACCTGGGGGAGTATTGCGGAGGAAGG + anchor), 100 nM annealed; ATP concentration: 500 uM
Procedure, shortened: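 The fluorescence ratio divides summed target-cycle Cy3 intensity by summed buffer-cycle Cy3 intensity for each cluster and is averaged per switch-domain sequence. Cy3-labelled switching-strand clusters on a modified Illumina MiSeq flow-cell were annealed to 100 nM quencher-labelled ATP aptamer, then imaged in selection buffer and again after 15 min with 500 uM ATP at 22 °C. Five such cycles were run, with NaOH stripping and re-annealing between them, and clusters outside 100-1000 RFU were excluded.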
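Further: ATP exposure 15 min at 22 °C before imaging.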

For TGGTTCGAGA, the switch fluorescence ratio was 0.979 ± 0.025.
For TGGTTCGTTA, the switch fluorescence ratio was 1 ± 0.05.
With TGGTTCGTTT the switch fluorescence ratio was 0.995 ± 0.055.
For TGGTTCTCGA, the switch fluorescence ratio was 0.987 ± 0.012.
TGGTTCTGGG gave a switch fluorescence ratio of 0.973 ± 0.013.
TGGTTCTTAA was tested, and the switch fluorescence ratio was 1.01 ± 0.041.
With TGGTTGCTGA the switch fluorescence ratio was 1 ± 0.033.
Work on TGGTTGGGTT yielded a switch fluorescence ratio of 1 ± 0.021.
Work on TGGTTGGTTG yielded a switch fluorescence ratio of 0.988 ± 0.02.
Work on TGGTTGTACG yielded a switch fluorescence ratio of 1.01 ± 0.027.
With TGGTTGTGCG the switch fluorescence ratio was 1.04 ± 0.018.
For TGGTTGTTGG, the switch fluorescence ratio was 0.95 ± 0.02.
TGGTTTAAAT gave a switch fluorescence ratio of 1.04 ± 0.054.
For TGGTTTAGCG, the switch fluorescence ratio was 0.964 ± 0.03.
Work on TGGTTTCGGT yielded a switch fluorescence ratio of 0.9903 ± 0.0017.
TGGTTTGATT was tested, and the switch fluorescence ratio was 1.003 ± 0.0064.
For TGGTTTGGCG, the switch fluorescence ratio was 1.02 ± 0.18.
For TGGTTTGGTG, the switch fluorescence ratio was 0.985 ± 0.034.
Work on TGGTTTTCTG yielded a switch fluorescence ratio of 1.03 ± 0.051.
TGGTTTTGAT gave a switch fluorescence ratio of 1.001 ± 0.0047.
TGGTTTTGC showed a switch fluorescence ratio of 1.01 ± 0.023.
TGGTTTTGTT was tested, and the switch fluorescence ratio was 1.01 ± 0.058.
Sequence TGGTTTTTCC has a switch fluorescence ratio of 1.11 ± 0.12.
Work on TGGTTTTTT yielded a switch fluorescence ratio of 0.998 ± 0.03.
TGTAAAAAT was tested, and the switch fluorescence ratio was 1.01 ± 0.042.
For TGTAAAGGGG, the switch fluorescence ratio was 1.01 ± 0.029.
In the case of TGTAAATGTG, the switch fluorescence ratio is reported as 1 ± 0.028.
With TGTAACTGTG the switch fluorescence ratio was 1.15 ± 0.028.
TGTAAGGTTT gave a switch fluorescence ratio of 1.01 ± 0.024.
In the case of TGTAAGTAGG, the switch fluorescence ratio is reported as 1.04 ± 0.025.
For TGTAATGGGG, the switch fluorescence ratio was 0.966 ± 0.015.
For TGTAATTCTA, the switch fluorescence ratio was 1.011 ± 0.0032.
TGTACCTTTA gave a switch fluorescence ratio of 1.04 ± 0.038.
With TGTACGGAGG the switch fluorescence ratio was 1.04 ± 0.057.
With TGTACTATGC the switch fluorescence ratio was 1.06 ± 0.058.
With TGTAGAGGGA the switch fluorescence ratio was 1.005 ± 0.0046.
For TGTAGATGGC, the switch fluorescence ratio was 1.03 ± 0.044.
Sequence TGTAGATTTT has a switch fluorescence ratio of 0.981 ± 0.011.
TGTAGCCAGT gave a switch fluorescence ratio of 1.05 ± 0.07.
In the case of TGTAGGGGCT, the switch fluorescence ratio is reported as 0.982 ± 0.026.
In the case of TGTAGGTTCT, the switch fluorescence ratio is reported as 1.06 ± 0.051.
TGTAGTCCTT gave a switch fluorescence ratio of 0.949 ± 0.015.
In the case of TGTAGTTTTT, the switch fluorescence ratio is reported as 0.961 ± 0.025.
For TGTATATAGC, the switch fluorescence ratio was 1 ± 0.021.
TGTATATCTA gave a switch fluorescence ratio of 1.02 ± 0.025.
TGTATCGTCG was tested, and the switch fluorescence ratio was 0.944 ± 0.023.
TGTATGAGGT was tested, and the switch fluorescence ratio was 1.02 ± 0.013.
TGTATGATGT was tested, and the switch fluorescence ratio was 1.03 ± 0.049.
TGTATTTAAG gave a switch fluorescence ratio of 0.97 ± 0.035.
TGTCAAAAAC showed a switch fluorescence ratio of 1.28 ± 0.29.
TGTCAAAAAG gave a switch fluorescence ratio of 1 ± 0.017.
With TGTCACAAGC the switch fluorescence ratio was 1.02 ± 0.013.
For TGTCAGGGTT, the switch fluorescence ratio was 1 ± 0.014.
Sequence TGTCAGTCGA has a switch fluorescence ratio of 1.002 ± 0.0036.
TGTCATCTAC gave a switch fluorescence ratio of 1.02 ± 0.016.
Sequence TGTCATGTAT has a switch fluorescence ratio of 0.987 ± 0.021.
TGTCCGGTGG showed a switch fluorescence ratio of 1.01 ± 0.066.
TGTCGACTTG gave a switch fluorescence ratio of 0.9716 ± 0.0066.
In the case of TGTCGGGATG, the switch fluorescence ratio is reported as 1.01 ± 0.022.
With TGTCTACTCT the switch fluorescence ratio was 1 ± 0.022.
For TGTGAAACAA, the switch fluorescence ratio was 1.01 ± 0.03.
TGTGAAACGG showed a switch fluorescence ratio of 0.9916 ± 0.0072.
TGTGAAATAG showed a switch fluorescence ratio of 1.02 ± 0.028.
Sequence TGTGAACGGA has a switch fluorescence ratio of 1.004 ± 0.01.
TGTGAAGGCG was tested, and the switch fluorescence ratio was 1.71 ± 1.
Sequence TGTGAATCCA has a switch fluorescence ratio of 0.976 ± 0.027.
Work on TGTGAATTCT yielded a switch fluorescence ratio of 0.993 ± 0.023.
With TGTGACAATG the switch fluorescence ratio was 0.997 ± 0.012.
Sequence TGTGACGAAC has a switch fluorescence ratio of 1.23 ± 0.045.
For TGTGAGAGGT, the switch fluorescence ratio was 0.995 ± 0.012.
For TGTGAGGGGG, the switch fluorescence ratio was 1.01 ± 0.038.
In the case of TGTGATCGAC, the switch fluorescence ratio is reported as 1.01 ± 0.018.
In the case of TGTGATGAT, the switch fluorescence ratio is reported as 1.01 ± 0.028.
For TGTGATGTGG, the switch fluorescence ratio was 1.04 ± 0.083.
With TGTGATTGGC the switch fluorescence ratio was 1.03 ± 0.041.
TGTGATTGTG was tested, and the switch fluorescence ratio was 0.967 ± 0.015.
TGTGATTTGT was tested, and the switch fluorescence ratio was 0.9702 ± 0.0032.
TGTGCATCT was tested, and the switch fluorescence ratio was 1.01 ± 0.015.
With TGTGGAATAA the switch fluorescence ratio was 1.03 ± 0.039.
TGTGGATGGT gave a switch fluorescence ratio of 0.956 ± 0.019.
For TGTGGCACAT, the switch fluorescence ratio was 1.005 ± 0.0065.
TGTGGCGATT gave a switch fluorescence ratio of 1.02 ± 0.016.
For TGTGGCGCCA, the switch fluorescence ratio was 0.987 ± 0.04.
Work on TGTGGCGTTT yielded a switch fluorescence ratio of 1.04 ± 0.059.
Work on TGTGGCTATG yielded a switch fluorescence ratio of 1.02 ± 0.014.
Work on TGTGGGAAGG yielded a switch fluorescence ratio of 1.05 ± 0.074.
In the case of TGTGGGATAT, the switch fluorescence ratio is reported as 1.05 ± 0.068.
With TGTGGGGGCT the switch fluorescence ratio was 1 ± 0.026.
With TGTGGGGGTG the switch fluorescence ratio was 1.01 ± 0.033.
Work on TGTGGGGTTT yielded a switch fluorescence ratio of 1 ± 0.057.
Work on TGTGGGTATA yielded a switch fluorescence ratio of 0.995 ± 0.02.
TGTGGGTCAT gave a switch fluorescence ratio of 0.9762 ± 0.0021.
In the case of TGTGGGTGGG, the switch fluorescence ratio is reported as 0.978 ± 0.025.
In the case of TGTGGTATGC, the switch fluorescence ratio is reported as 1.01 ± 0.057.
For TGTGGTGAGT, the switch fluorescence ratio was 0.963 ± 0.012.
TGTGGTGGCG was tested, and the switch fluorescence ratio was 0.935 ± 0.018.
For TGTGGTTAGC, the switch fluorescence ratio was 1.01 ± 0.064.
TGTGGTTCGA gave a switch fluorescence ratio of 0.972 ± 0.011.
In the case of TGTGGTTGGA, the switch fluorescence ratio is reported as 1 ± 0.012.
In the case of TGTGTATGAG, the switch fluorescence ratio is reported as 0.986 ± 0.036.

From the supplement of paper PMC10126150
